Experimental data as given in patent publication US7037502B2, “Peptide with the amino acid sequence of KVLDGQDP having anti-inflammatory properties” (priority 2001, dated 2006).

Biological target: T1, PLA2 (Bovine pancreas, EC 3.1.1.4) (Bos taurus, UniProt P00593)
T1 construct: 0.18 Unit PLA2 (Bovine pancreas, EC 3.1.1.4, Sigma); purchased Sigma; host or cells: bovine pancreas
Assay: Inhibitory effect of synthetic peptides on PLA2 in vitro ([14C]-arachidonic acid release)
Type: biochemical
Settings: peptides 1×10^−8 M, preincubated 15 min at 37° C.; compared with the peptides known as PLA2 inhibitors
Excerpt: It has been examined whether synthetic peptides contain inhibitory effect on PLA2 activity. A established PLA2 assay method was used to determine the enzymatic activity by measuring the release [^14C]-arachidonic acid from 1-acyl-2-[1-^14C]arachidonic acid-glycerophospho-ethanolamine (Biochem. Pharmacol. 54, 259–268, 1997). To determine the inhibitory activity, 0.18 Unit PLA2 (Bovine pancreas, EC 3.1.1.4, Sigma; 1.0 unit will hydrolyze […] of L-phosphatidylcholine to L-lysophosphatidylcholine and a fatty acid per min. at pH 8.0 at 37° C.) was preincubated for 15 minutes with the synthetic peptides (1×10^−8 M) at 37° C. in […] before adding 1-acyl-2-[1-^14C]arachidonic acid-glycerophospho-ethanolamine. The control was also PLA2 preincubated with buffer. After pre-incubation, PLA2 activity was assayed using sonicated liposomes, prepared as established method (Biochem. Biophys. Acta. 1083, 80–88, 1991). […] of 1-acyl-2-[1-^14C]arachidonic acid-glycerophospho-ethanolamine (about 2×10^5 dpm) was added in pre-incubated mixture, and incubated for 1 hr at 37° C. […]
For inhibitory test of the peptides given, each value is the mean of data from three separate experiments (S.D.<10%). The value of PLA2 activity incubated without peptides was determined as 100% PLA2 activity that is 5.57 pmole arachidonyl/hr. % Inhibition was shown in FIG. 1.

T1 sequence (P00593 23-145): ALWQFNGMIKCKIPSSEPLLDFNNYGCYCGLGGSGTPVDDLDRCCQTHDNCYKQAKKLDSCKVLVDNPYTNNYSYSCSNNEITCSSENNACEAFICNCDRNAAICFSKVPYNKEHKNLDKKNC

KVLDGQDP [Peptide R2, synthetic peptide of the invention]
PLA2 activity (FIG. 1), result in words: significantly reduced

KVLDPVKG [Peptide R1, synthetic peptide of the invention]
PLA2 activity (FIG. 1), result in words: significantly reduced
